Results taken from PMC6854500.

What was measured:
[1] = target: PEDV CV777 S soluble ectodomain (residues 1 to 1319) with C-terminal T4 fibritin trimerization motif (porcine epidemic diarrhea virus, strain CV777 | bacteriophage T4) (UniProt Q91AV1); assay: SEC; Superose6 10/300 column, 2 mM Tris (pH 8.0), 200 mM NaCl, 0.02% NaN3; single symmetrical peak
[2] = target: PEDV CV777 S soluble ectodomain (residues 1 to 1319) with C-terminal T4 fibritin trimerization motif (porcine epidemic diarrhea virus, strain CV777 | bacteriophage T4) (UniProt Q91AV1); assay: cryo-EM structure; PEDV S CV777 at 0.4 mg/ml in 2 mM Tris (pH 8.0), 200 mM NaCl, 0.02% NaN3, 0.01% Amphipol A8-35; Titan Krios 300 kV; 3.3 Å without symmetry, 3.1 Å with C3; a 10-Å reconstruction with 2 mM 3'-sialyllactose was indistinguishable
[3] = target: dissociated PEDV CV777 S1 subunit (S1 ring) (porcine epidemic diarrhea virus, strain CV777) (UniProt Q91AV1); assay: cryo-EM structure; roughly 10% of the particles of the PEDV CV777 S data set, 2D classes and a 9.4-Å reconstruction without imposed symmetry (C1)

Substance	stoichiometry N [1]	stoichiometry N [2]	stoichiometry N [3]
PEDV CV777 S soluble ectodomain (residues 1 to 1319) with C-terminal T4 fibritin trimerization motif (from UniProt Q91AV1 26-1319) (domain or fragment)	3	3	
dissociated PEDV CV777 S1 subunit (S1 ring) (from UniProt Q91AV1 26-1383) (domain or fragment)			3
